Reference: patent US20210277068A1 (SHANXI KANGBAO BIOLOGICAL PRODUCT, published 2021)
Values joined by “and” are separate entries in the source; they are usually repeats but may differ in a detail not shown here. Equal values may be shown once. Ends that are not written are not given here. * marks the point of attachment. Stearoyl = CCCCCCCCCCCCCCCCCC(=O)*; Palmitoyl = CCCCCCCCCCCCCCCC(=O)*

T1: N39 (HIV-1, N-terminal acetyl (Ac-); C-terminal amide (-NH2))
T1 peptide: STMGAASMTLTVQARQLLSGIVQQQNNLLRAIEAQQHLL

B1: LP-40 (peptide)
peptide: Ac-YTSLIHSLIEESQNQQEKNEQELLELDK
modifications: not fully specified (residue 28, C-terminus)
notes: also called T-20-based lipopeptide
B2: LP-52 (peptide)
peptide: Ac-WEQKIEELLKKAEEQQKKNEEELKKLEK(Palmitoyl)-NH2
B3: LP-80 (peptide)
peptide: Ac-WEQKIEELLKKAEEQQKKNEEELKKLEK(Stearoyl)-NH2
B4: LP-91 (peptide)
peptide: Ac-WEQKIEELLKKAEEQQKKNEEELKK(Stearoyl)-NH2
B5: LP-90 (peptide)
peptide: Ac-IEELLKKAEEQQKKNEEELKKLEK(Stearoyl)-NH2
B6: LP-92 (peptide)
peptide: Ac-IEELLKKAEEQQKKNEEELKK(Stearoyl)-NH2
SMILES: CCCCCCCCCCCCCCCCCC(=O)NCCCC[C@H](NC(=O)[C@H](CCCCN)NC(=O)[C@H](CC(C)C)NC(=O)[C@H](CCC(=O)O)NC(=O)[C@H](CCC(=O)O)NC(=O)[C@H](CCC(=O)O)NC(=O)[C@H](CC(N)=O)NC(=O)[C@H](CCCCN)NC(=O)[C@H](CCCCN)NC(=O)[C@H](CCC(N)=O)NC(=O)[C@H](CCC(N)=O)NC(=O)[C@H](CCC(=O)O)NC(=O)[C@H](CCC(=O)O)NC(=O)[C@H](C)NC(=O)[C@H](CCCCN)NC(=O)[C@H](CCCCN)NC(=O)[C@H](CC(C)C)NC(=O)[C@H](CC(C)C)NC(=O)[C@H](CCC(=O)O)NC(=O)[C@H](CCC(=O)O)NC(=O)[C@@H](NC(C)=O)[C@@H](C)CC)C(N)=O
B7: LP-69 (peptide)
peptide: Ac-IEELLKKAEEQQKKNEEELKK(Palmitoyl)-NH2
SMILES: CCCCCCCCCCCCCCCC(=O)NCCCC[C@H](NC(=O)[C@H](CCCCN)NC(=O)[C@H](CC(C)C)NC(=O)[C@H](CCC(=O)O)NC(=O)[C@H](CCC(=O)O)NC(=O)[C@H](CCC(=O)O)NC(=O)[C@H](CC(N)=O)NC(=O)[C@H](CCCCN)NC(=O)[C@H](CCCCN)NC(=O)[C@H](CCC(N)=O)NC(=O)[C@H](CCC(N)=O)NC(=O)[C@H](CCC(=O)O)NC(=O)[C@H](CCC(=O)O)NC(=O)[C@H](C)NC(=O)[C@H](CCCCN)NC(=O)[C@H](CCCCN)NC(=O)[C@H](CC(C)C)NC(=O)[C@H](CC(C)C)NC(=O)[C@H](CCC(=O)O)NC(=O)[C@H](CCC(=O)O)NC(=O)[C@@H](NC(C)=O)[C@@H](C)CC)C(N)=O
notes: Residues 1-21 follow from the statement that LP-69 is LP-65 (24 residues) without its C-terminal LEK
B8: LP-89 (peptide)
peptide: Ac-KIEELLKKAEEQQKKNEEELKKLEK(Stearoyl)-NH2
SMILES: CCCCCCCCCCCCCCCCCC(=O)NCCCC[C@H](NC(=O)[C@H](CCC(=O)O)NC(=O)[C@H](CC(C)C)NC(=O)[C@H](CCCCN)NC(=O)[C@H](CCCCN)NC(=O)[C@H](CC(C)C)NC(=O)[C@H](CCC(=O)O)NC(=O)[C@H](CCC(=O)O)NC(=O)[C@H](CCC(=O)O)NC(=O)[C@H](CC(N)=O)NC(=O)[C@H](CCCCN)NC(=O)[C@H](CCCCN)NC(=O)[C@H](CCC(N)=O)NC(=O)[C@H](CCC(N)=O)NC(=O)[C@H](CCC(=O)O)NC(=O)[C@H](CCC(=O)O)NC(=O)[C@H](C)NC(=O)[C@H](CCCCN)NC(=O)[C@H](CCCCN)NC(=O)[C@H](CC(C)C)NC(=O)[C@H](CC(C)C)NC(=O)[C@H](CCC(=O)O)NC(=O)[C@H](CCC(=O)O)NC(=O)[C@@H](NC(=O)[C@H](CCCCN)NC(C)=O)[C@@H](C)CC)C(N)=O
B9: LP-50 (peptide)
peptide: Ac-YTSLIEELIKKSEEQQKKNEEELKKLEK(Palmitoyl)-NH2
SMILES: CCCCCCCCCCCCCCCC(=O)NCCCC[C@H](NC(=O)[C@H](CCC(=O)O)NC(=O)[C@H](CC(C)C)NC(=O)[C@H](CCCCN)NC(=O)[C@H](CCCCN)NC(=O)[C@H](CC(C)C)NC(=O)[C@H](CCC(=O)O)NC(=O)[C@H](CCC(=O)O)NC(=O)[C@H](CCC(=O)O)NC(=O)[C@H](CC(N)=O)NC(=O)[C@H](CCCCN)NC(=O)[C@H](CCCCN)NC(=O)[C@H](CCC(N)=O)NC(=O)[C@H](CCC(N)=O)NC(=O)[C@H](CCC(=O)O)NC(=O)[C@H](CCC(=O)O)NC(=O)[C@H](CO)NC(=O)[C@H](CCCCN)NC(=O)[C@H](CCCCN)NC(=O)[C@@H](NC(=O)[C@H](CC(C)C)NC(=O)[C@H](CCC(=O)O)NC(=O)[C@H](CCC(=O)O)NC(=O)[C@@H](NC(=O)[C@H](CC(C)C)NC(=O)[C@H](CO)NC(=O)[C@@H](NC(=O)[C@H](Cc1ccc(O)cc1)NC(C)=O)[C@@H](C)O)[C@@H](C)CC)[C@@H](C)CC)C(N)=O
notes: LP-40 with EE**KK ion pairs introduced; also called P50 with C16
B10: LP-65 (peptide)
peptide: Ac-IEELLKKAEEQQKKNEEELKKLEK(Palmitoyl)-NH2
SMILES: CCCCCCCCCCCCCCCC(=O)NCCCC[C@H](NC(=O)[C@H](CCC(=O)O)NC(=O)[C@H](CC(C)C)NC(=O)[C@H](CCCCN)NC(=O)[C@H](CCCCN)NC(=O)[C@H](CC(C)C)NC(=O)[C@H](CCC(=O)O)NC(=O)[C@H](CCC(=O)O)NC(=O)[C@H](CCC(=O)O)NC(=O)[C@H](CC(N)=O)NC(=O)[C@H](CCCCN)NC(=O)[C@H](CCCCN)NC(=O)[C@H](CCC(N)=O)NC(=O)[C@H](CCC(N)=O)NC(=O)[C@H](CCC(=O)O)NC(=O)[C@H](CCC(=O)O)NC(=O)[C@H](C)NC(=O)[C@H](CCCCN)NC(=O)[C@H](CCCCN)NC(=O)[C@H](CC(C)C)NC(=O)[C@H](CC(C)C)NC(=O)[C@H](CCC(=O)O)NC(=O)[C@H](CCC(=O)O)NC(=O)[C@@H](NC(C)=O)[C@@H](C)CC)C(N)=O
notes: N-terminally truncated, based on LP-52; 24 amino acids

How the values were obtained:
[1] = target: T1, N39; assay: circular dichroism of the 1:1 mixture with N39, 10 µM each in PBS pH 7.2
[2] = target: T1, N39; assay: circular dichroism temperature scan at 220 nm of the 1:1 mixture with N39, 10 µM each in PBS pH 7.2
[3] = target: gp41 of the envelope protein (Env) of the D36G mutant of HIV-1 strain NL4-3 (HIV-1 strain NL4-3); assay: cell-based or functional assay
[4] = target: gp41 of the envelope protein of HIV-1 strain JRCSF (HIV-1 strain JRCSF); assay: cell-based or functional assay
[5] = target: T1, N39; assay: circular dichroism temperature scan at 220 nm of the 1:1 mixture with N39, 10 µM each in PBS pH 7.2; difference against LP-52
[6] = target: gp41 of the envelope protein (Env) of HIV-1 strain HXB2 (HIV-1 strain HXB2, UniProt P04578 33-856); assay: cell-based or functional assay

Binder	helix content of the complex [1] [%]	Tm value of the complex [2]	other results
B1	57.7	51.3 °C	
B2	63.8	79.1 °C	
B3		79 °C	IC50 for inhibiting HIV-1 strain NL4-3 [3]: 2 pM; IC50 for inhibiting HIV-1 strain JRCSF [4]: 2 pM
B4		61 °C	
B5		71.1 °C	
B6		55.1 °C	
B7		51 °C	Tm value lower than that of the LP-52 by [5]: 28.1 °C
B8		70 °C	
B9		63.3 °C	IC50 for inhibiting cell fusion (HXB2-cell fusion) [6]: 21 pM; IC50 for inhibiting pseudovirus (entry of NL4-3) [3]: 7 pM; IC50 for inhibiting replicative virus (replication of JRCSF) [4]: 23 pM
B10	63	> 70 °C and 72.1 °C	
